How the values were obtained:
murine FcγRIV (mouse) = assay: SPR; Biacore T200; analysis of Fc-Fc receptor binding; who was immobilised and the conditions are not given
[1] = biological target: human FcγRIIIa-158V (human); assay: as above

Binder | Kd (murine FcγRIV (mouse)) | Kd [1]
HuE71-IgG1-Afuco (antibody, V domains shown) VH: QVQLVQPGDELVKPGASVKLSCKASGYTFTSYWMQWVKQRPGQGLEWIGEINPSNGRTNYNEMFKSKAVLSVDKSVSTAYMQLSSLTAEDTAVYYCALYDGYYAMDYWGQGTLVTVSS VL: DIVMTQSPSSLAVSVGERVTMSCKSSQSLLYSSNQKNYLAWYQQKPGQSPKLLIYWASTRESGVPDRFSGSGSGTDFTLTISSVKAEDVALYYCQQYHSYPFTFGQGTKLEIK | 227 nM | 286 nM
Desferrioxamine-HuE71-IgG1 (antibody, V domains shown) VH: QVQLVQPGDELVKPGASVKLSCKASGYTFTSYWMQWVKQRPGQGLEWIGEINPSNGRTNYNEMFKSKAVLSVDKSVSTAYMQLSSLTAEDTAVYYCALYDGYYAMDYWGQGTLVTVSS VL: DIVMTQSPSSLAVSVGERVTMSCKSSQSLLYSSNQKNYLAWYQQKPGQSPKLLIYWASTRESGVPDRFSGSGSGTDFTLTISSVKAEDVALYYCQQYHSYPFTFGQGTKLEIK | 539 nM | 664 nM

Second part, the binder after the results:

Kd (murine FcγRIV (mouse)) | Kd [1] | Binder
724 nM | 873 nM | HuE71-IgG1 (antibody, V domains shown) VH: QVQLVQPGDELVKPGASVKLSCKASGYTFTSYWMQWVKQRPGQGLEWIGEINPSNGRTNYNEMFKSKAVLSVDKSVSTAYMQLSSLTAEDTAVYYCALYDGYYAMDYWGQGTLVTVSS VL: DIVMTQSPSSLAVSVGERVTMSCKSSQSLLYSSNQKNYLAWYQQKPGQSPKLLIYWASTRESGVPDRFSGSGSGTDFTLTISSVKAEDVALYYCQQYHSYPFTFGQGTKLEIK
219 nM | 294 nM | Desferrioxamine-HuE71-IgG1-Afuco (antibody, V domains shown) VH: QVQLVQPGDELVKPGASVKLSCKASGYTFTSYWMQWVKQRPGQGLEWIGEINPSNGRTNYNEMFKSKAVLSVDKSVSTAYMQLSSLTAEDTAVYYCALYDGYYAMDYWGQGTLVTVSS VL: DIVMTQSPSSLAVSVGERVTMSCKSSQSLLYSSNQKNYLAWYQQKPGQSPKLLIYWASTRESGVPDRFSGSGSGTDFTLTISSVKAEDVALYYCQQYHSYPFTFGQGTKLEIK
